Source: patent US20260250363A1 (AP BIOSCIENCES, published 2026)
Read-outs that look alike come from different tables or passages of the source.

Experiments:
[1] = biological target: SARS-CoV-2 Spike Protein, wild type (R&D, Cat. #10549-CV) (SARS-CoV-2, UniProt P0DTC2 16-1211); test: competition ELISA: blocks biotin-ACE2 binding to coated spike
[2] = biological target: SARS-CoV-2 C.37 Spike His Protein (R&D, Cat. #10887-CV) (SARS-CoV-2, UniProt P0DTC2 16-1211); test: as above
[3] = biological target: SARS-CoV-2 B.1.617.2 Spike Protein (R&D, Cat. #10878-CV) (SARS-CoV-2, UniProt P0DTC2 16-1211); test: as above
[4] = biological target: SARS-CoV-2 AY.1 Spike Protein (R&D, Cat. #10922-CV) (SARS-CoV-2, UniProt P0DTC2 16-1211); test: as above
[5] = biological target: T1, SARS-CoV-2 B.1.1.529 Spike Protein (Omicron) (SARS-CoV-2, UniProt P0DTC2 16-1211); test: as above
[6] = biological target: T1, SARS-CoV-2 B.1.1.529 Spike Protein …; test: as above; remark: listed apart in the source
[7] = biological target: T2, Recombinant SARS-CoV-2 BA.2 Spike (GCN4-IZ) His Protein, CF (R&D, 11109-CV) (SARS-CoV-2, UniProt P0DTC2 16-1211); test: as above
[8] = biological target: T3, SARS-CoV-2 Spike Trimer, His Tag (BA.4/Omicron) (MALS verified) (AcroBiosystems, SPN-C5229) (SARS-CoV-2, UniProt P0DTC2 16-1213); test: as above
[9] = biological target: T4, SARS-CoV-2 Spike Trimer, His Tag (BA.5/Omicron) (MALS verified) (AcroBiosystems, SPN-C522e) (SARS-CoV-2, UniProt P0DTC2 16-1213); test: as above
[10] = biological target: T1, SARS-CoV-2 B.1.1.529 Spike Protein …; test: BLI (ForteBio), mAb on AHC sensor, spike in solution
[11] = biological target: T2, Recombinant SARS-CoV-2 BA.2 Spike …; test: as above
[12] = biological target: T3, SARS-CoV-2 Spike Trimer, His Tag …; test: as above
[13] = biological target: T4, SARS-CoV-2 Spike Trimer, His Tag …; test: as above
[14] = biological target: SARS-CoV-2 AY.1 Spike Protein (R&D, Cat. #10922-CV) (SARS-CoV-2, UniProt P0DTC2 16-1211)
[15] = biological target: SARS-CoV-2 Spike Protein, wild type (R&D, Cat. #10549-CV) (SARS-CoV-2, UniProt P0DTC2 16-1211); test: direct ELISA on coated spike; no plateau within the range shown
[16] = biological target: SARS-CoV-2 C.37 Spike His Protein (R&D, Cat. #10887-CV) (SARS-CoV-2, UniProt P0DTC2 16-1211); test: as above

B1: Anti-SARS-CoV-2 #R4-11#R4-1a-10 scFv bsAb (bispecific antibody)
heavy: not shown
light: QSVLTQPPSVSEAPGQRVTISCSGSSSNIANNAVNWYQQLPGQAPKLLIFYDDLLPSWVSDRFSGSKSGTSASLAISGLQSEDEADYYCAAWDDSLNGPVFGGGTKLTVLRQPVAAPSVTLFPPSSEELQANKATLVCLISDFYPGAVTVAWKADSSPVKAGVETTTPSKQSNNKYAASSYLSLTPEQWKSHKSYSCQVTHEGSTVEKTVAPAECS
[1]
  IC50: 2.73 nM
[2]
  IC50: 1.97 nM
[3]
  IC50: 1.45 nM
[4]
  IC50: 0.715 nM
[5]
  IC50: 2.32 nM

B2: Anti-SARS-CoV-2 #R3-1a-1-# R4-1a-10 scFv bsAb (bispecific antibody)
heavy: not shown
light: NFMLTQPHSVSESPGKTVTISCTRSSGSIASKYVQWYQQRPGNSPTTVIYEDDQRPSGVPDRFSASIDSSANTASLTISGLKPEDEADYYCQSYDDNTAVFGGGTHLTVLGQPKAAPSVTLFPPSSEELQANKATLVCLVSDFYPGAVTVAWKADGSPVKVGVETTKPSKQSNNKYAASSYLSLTPEQWKSHRSYSCRVTHEGSTVEKTVAPAECS
[6]
  IC50: 1.83 nM
[7]
  IC50: 0.803 nM
[8]
  IC50: 3.51 nM
[9]
  IC50: 4.97 nM

B3: R3-1a-1/R4-1a-51 scFv (bispecific antibody)
heavy chain with C-terminal scFv: not shown
light chain: NFMLTQPHSVSESPGKTVTISCTRSSGSIASKYVQWYQQRPGNSPTTVIYEDDQRPSGVPDRFSASIDSSANTASLTISGLKPEDEADYYCQSYDDNTAVFGGGTHLTVLGQPKAAPSVTLFPPSSEELQANKATLVCLVSDFYPGAVTVAWKADGSPVKVGVETTKPSKQSNNKYAASSYLSLTPEQWKSHRSYSCRVTHEGSTVEKTVAPAECS
[6]
  IC50: 5.85 nM
[7]
  IC50: 3.31 nM
[8]
  IC50: 7.74 nM
[9]
  IC50: 11.1 nM

B4: Anti-SARS-CoV-2 #R4-1a-10-#R4-11 scFv bsAb (bispecific antibody)
heavy: not shown
light: QSVLTQPSSVSAAPWQRVTISCSGSDSNIGNNPVNWYQHVPGKAPTLLIYYDNFLASKISDRFSGSKSGTSASLAISGLQSDDEADYYCASWDDSLNGVVFGGGTKLTVLRQPKAAPSVTLFPPSSEELQANKATLVCLISDFYPGAVTVAWKADSSPVKAGVETTTPSKQSNNKYAASSYLSLTPEQWKSHRSYSCQVTHEGSTVEKTVAPTECS
[1]
  IC50: 0.857 nM
[2]
  IC50: 0.897 nM
[3]
  IC50: 0.563 nM
[4]
  IC50: 0.349 nM
[5]
  IC50: 1.06 nM

B5: anti-SARS-CoV-2 antibody clone R4-21 (antibody, V domains shown)
VH: QVQLVQSGAEVKKPGESLKISCKGSGYSFTSYWIGWVRQMPGKGLEWMGIIYPGDSDTRYSPSFQGQVTISADKSISTAYLQWSSLKASDTAMYYCATQTPYYDSSDYYLGDAFDIWGQGTMVTVSS
VL: QSALTQPASVSGSPGQSITISCTGTSSDVGGYNYVSWYQQHPGKAPKLIIYDVRNRPSGVSNRFSGSKSGNTASLTISGLQAEDEADYYCGSYTSSSTLGFGGGTKLTVLG
[10]
  Kd: 2.58 nM
[11]
  Kd: 2.32 nM
[12]
  Kd: 1.62 nM
[13]
  Kd: 2.63 nM

B6: Anti-SARS-CoV-2 #R4-21-# R4-1a-10 scFv bsAb (bispecific antibody)
heavy: not shown
light: QSALTQPASVSGSPGQSITISCTGTSSDVGGYNYVSWYQQHPGKAPKLIIYDVRNRPSGVSNRFSGSKSGNTASLTISGLQAEDEADYYCGSYTSSSTLGFGGGTKLTVLGQPKAAPSVTLFPPSSEELQANKATLVCLISDFYPGAVTVAWKADSSPVKAGVETTTPSKQSNNKYAASSYLSLTPEQWKSHKSYSCQVTHEGSTVEKTVAPTECS
[6]
  IC50: 1.08 nM
[7]
  IC50: 0.246 nM
[8]
  IC50: 1.04 nM
[9]
  IC50: 1.37 nM

B7: Anti-SARS-CoV-2 #R4-21-# R4-1a-51 scFv bsAb (bispecific antibody)
heavy: not shown
light: QSALTQPASVSGSPGQSITISCTGTSSDVGGYNYVSWYQQHPGKAPKLIIYDVRNRPSGVSNRFSGSKSGNTASLTISGLQAEDEADYYCGSYTSSSTLGFGGGTKLTVLGQPKAAPSVTLFPPSSEELQANKATLVCLISDFYPGAVTVAWKADSSPVKAGVETTTPSKQSNNKYAASSYLSLTPEQWKSHKSYSCQVTHEGSTVEKTVAPTECS
[6]
  IC50: 1.01 nM
[7]
  IC50: 0.354 nM
[8]
  IC50: 1.14 nM
[9]
  IC50: 1.65 nM

B8: R4-7 (antibody, V domains shown)
VH: QVQLQESGGGLVQPGGSLRLSCAVSGMTLDYYAIAWFRQAPGKEREGVSRISSSDGSTSYADSVKGRFTISRDNAKNTVYLQMNSLKPEDTGVYYCAASPLTYYSGTYYFPGEYDYWGQGTQVTVSS
[14]
  EC50: 252000 nM
[15]
  EC50: 20.4 nM
[16]
  EC50: 13.3 nM
